Data taken from the Human Domainome abundance scans (Beltran et al. 2025).
± gives the uncertainty stated by the source.

B1: Pre-mRNA-processing factor 40 homolog B, residues 274 to 332; numbered along this chain, Q6NWY9 (parent)
chain: SNREKAKQAFKELLRDKAVPSNASWEQAMKMVVTDPRYSALPKLSEKKQAFNAYKAQRE

Variants of: B1
Assay: abundance fitness (aPCA) (normalised: wild type 0, dead -1); higher = more abundant; growth selection in yeast, the domain comes from the species named
Conditions: Homo sapiens
For P36R, the abundance fitness was -0.24 ± 0.064.
A9K gave an abundance fitness of -0.196 ± 0.089.
In the case of A9N, the abundance fitness is reported as -0.279 ± 0.14.
A9R gave an abundance fitness of -0.364 ± 0.06.
For A9M, the abundance fitness was -0.119 ± 0.12.
Variant K30L has an abundance fitness of -0.42 ± 0.088.
K30G gave an abundance fitness of -0.214 ± 0.067.
In the case of K30H, the abundance fitness is reported as -0.384 ± 0.19.
Work on K30T yielded an abundance fitness of -0.143 ± 0.084.
For K30V, the abundance fitness was -0.429 ± 0.074.
For K30F, the abundance fitness was -0.76 ± 0.17.
Variant K30E has an abundance fitness of 0.067 ± 0.12.
Variant K30I has an abundance fitness of -0.701 ± 0.19.
K30S gave an abundance fitness of -0.156 ± 0.087.
For K43F, the abundance fitness was -0.593 ± 0.17.
Work on K43N yielded an abundance fitness of -0.105 ± 0.14.
In the case of K43V, the abundance fitness is reported as -0.482 ± 0.063.
K43P showed an abundance fitness of -0.359 ± 0.078.
Work on K43Q yielded an abundance fitness of -0.091 ± 0.081.
Variant E4K has an abundance fitness of -0.368 ± 0.11.
Variant E4F has an abundance fitness of -0.294 ± 0.14.
Variant E4P has an abundance fitness of -0.566 ± 0.13.
Variant E4R has an abundance fitness of -0.45 ± 0.064.
Work on E4W yielded an abundance fitness of -0.642 ± 0.11.
E4T showed an abundance fitness of -0.433 ± 0.1.
With E4S the abundance fitness was -0.156 ± 0.071.
With E4Q the abundance fitness was -0.233 ± 0.084.
In the case of K5W, the abundance fitness is reported as -0.553 ± 0.081.
With K5H the abundance fitness was -0.203 ± 0.14.
In the case of K5T, the abundance fitness is reported as -0.042 ± 0.095.
Work on K5E yielded an abundance fitness of -0.049 ± 0.09.
Work on K5C yielded an abundance fitness of -0.134 ± 0.088.
Work on P42R yielded an abundance fitness of -0.326 ± 0.059.
For P42M, the abundance fitness was -0.189 ± 0.11.
Variant P42G has an abundance fitness of -0.156 ± 0.053.
For P42K, the abundance fitness was -0.13 ± 0.18.
In the case of P42L, the abundance fitness is reported as -0.287 ± 0.086.
Q49L showed an abundance fitness of -0.386 ± 0.086.
For Q49N, the abundance fitness was -0.481 ± 0.21.
Q49E showed an abundance fitness of 0.294 ± 0.1.
Variant Q49Y has an abundance fitness of -0.544 ± 0.24.
Variant Q49P has an abundance fitness of -0.574 ± 0.11.
Work on Q49K yielded an abundance fitness of -0.066 ± 0.2.
With T34H the abundance fitness was 0.043 ± 0.12.
In the case of T34Y, the abundance fitness is reported as -0.23 ± 0.11.
T34S showed an abundance fitness of 0.003 ± 0.068.
With T34Q the abundance fitness was -0.015 ± 0.1.
For R58L, the abundance fitness was 0.212 ± 0.1.
R58P showed an abundance fitness of -0.018 ± 0.11.
Work on R58H yielded an abundance fitness of -0.013 ± 0.27.
For R58F, the abundance fitness was -0.162 ± 0.22.
R58A gave an abundance fitness of 0.188 ± 0.088.
Work on R58C yielded an abundance fitness of 0.26 ± 0.13.
In the case of R58Q, the abundance fitness is reported as 0.16 ± 0.12.
Variant A50L has an abundance fitness of -0.084 ± 0.075.
A50C gave an abundance fitness of -0.008 ± 0.1.
Work on A50T yielded an abundance fitness of -0.43 ± 0.1.
A50R showed an abundance fitness of -0.818 ± 0.072.
Variant A50W has an abundance fitness of -0.627 ± 0.089.
With A50H the abundance fitness was -0.606 ± 0.28.
In the case of A50E, the abundance fitness is reported as -0.224 ± 0.14.
For A50D, the abundance fitness was -0.299 ± 0.13.
Variant A50F has an abundance fitness of -0.485 ± 0.19.
With E12Q the abundance fitness was -0.249 ± 0.1.
With E12N the abundance fitness was -0.128 ± 0.14.
With E12G the abundance fitness was -0.491 ± 0.061.
For E12D, the abundance fitness was -0.152 ± 0.12.
In the case of E12K, the abundance fitness is reported as -0.469 ± 0.11.
Variant D35R has an abundance fitness of -1.12 ± 0.093.
Variant D35M has an abundance fitness of -0.699 ± 0.12.
For D35P, the abundance fitness was -0.905 ± 0.14.
Work on D35A yielded an abundance fitness of -0.701 ± 0.083.
Variant D35I has an abundance fitness of -0.94 ± 0.2.
In the case of D35Y, the abundance fitness is reported as -1.38 ± 0.31.
Work on K11L yielded an abundance fitness of 0.159 ± 0.1.
K11H gave an abundance fitness of -0.17 ± 0.32.
With K11P the abundance fitness was -0.322 ± 0.13.
In the case of K11T, the abundance fitness is reported as 0.217 ± 0.11.
With K11I the abundance fitness was 0.233 ± 0.12.
K11Y showed an abundance fitness of -0.155 ± 0.24.
In the case of A53Y, the abundance fitness is reported as -0.524 ± 0.19.
With A53H the abundance fitness was -0.476 ± 0.26.
Work on A53G yielded an abundance fitness of -0.293 ± 0.052.
Variant A53I has an abundance fitness of -0.372 ± 0.15.
With Y38L the abundance fitness was -0.546 ± 0.073.
Work on Y38D yielded an abundance fitness of -0.346 ± 0.11.
For Y38N, the abundance fitness was -0.466 ± 0.13.
In the case of Y38I, the abundance fitness is reported as -0.548 ± 0.18.
In the case of Y38K, the abundance fitness is reported as -0.217 ± 0.1.
Y38A showed an abundance fitness of -0.317 ± 0.067.
For Y38M, the abundance fitness was -0.613 ± 0.096.
In the case of L41M, the abundance fitness is reported as -0.176 ± 0.12.
L41C gave an abundance fitness of -0.438 ± 0.14.
Variant L41K has an abundance fitness of -0.372 ± 0.095.
In the case of L41H, the abundance fitness is reported as -0.785 ± 0.23.
Work on L41N yielded an abundance fitness of -0.443 ± 0.17.
With L41T the abundance fitness was -0.214 ± 0.094.
With L41P the abundance fitness was -0.295 ± 0.077.
In the case of L41W, the abundance fitness is reported as -0.486 ± 0.081.
For V33F, the abundance fitness was -0.228 ± 0.11.
Work on V33C yielded an abundance fitness of 0.137 ± 0.086.
With V33G the abundance fitness was 0.055 ± 0.054.
In the case of V33L, the abundance fitness is reported as -0.135 ± 0.067.
For V33D, the abundance fitness was 0.006 ± 0.13.
With S1D the abundance fitness was -0.357 ± 0.48.
For S1V, the abundance fitness was 0.13 ± 0.14.
Variant S1I has an abundance fitness of -0.075 ± 0.28.
S1F showed an abundance fitness of 0.15 ± 0.27.
For S39L, the abundance fitness was -0.342 ± 0.084.
S39G showed an abundance fitness of -0.071 ± 0.068.
Work on S39T yielded an abundance fitness of -0.099 ± 0.095.
Work on S39K yielded an abundance fitness of -0.228 ± 0.14.
In the case of S39W, the abundance fitness is reported as -0.278 ± 0.1.
In the case of Q57S, the abundance fitness is reported as 0.027 ± 0.059.
Variant Q57V has an abundance fitness of -0.257 ± 0.057.
For Q57L, the abundance fitness was -0.527 ± 0.066.
In the case of Q57C, the abundance fitness is reported as -0.156 ± 0.075.
Variant Q57M has an abundance fitness of -0.322 ± 0.091.
In the case of Q57W, the abundance fitness is reported as -0.138 ± 0.066.
For E26L, the abundance fitness was -0.362 ± 0.088.
E26Y showed an abundance fitness of -0.581 ± 0.14.
In the case of E26M, the abundance fitness is reported as -0.325 ± 0.19.
For E26F, the abundance fitness was -0.729 ± 0.16.
Variant E26G has an abundance fitness of -0.274 ± 0.067.
With E26P the abundance fitness was -0.149 ± 0.099.
Work on E26W yielded an abundance fitness of -0.598 ± 0.11.
With M31W the abundance fitness was -0.865 ± 0.13.
With M31L the abundance fitness was -0.189 ± 0.099.
M31E gave an abundance fitness of -0.109 ± 0.088.
Variant M31R has an abundance fitness of -0.266 ± 0.06.
M31D gave an abundance fitness of -0.272 ± 0.11.
With M31H the abundance fitness was -0.208 ± 0.17.
With M31S the abundance fitness was -0.115 ± 0.077.
With K55Q the abundance fitness was -0.239 ± 0.12.
With K55W the abundance fitness was -0.947 ± 0.11.
Variant K55T has an abundance fitness of -0.242 ± 0.091.
For K55R, the abundance fitness was -0.18 ± 0.057.
K55D showed an abundance fitness of -0.29 ± 0.11.
Work on K55I yielded an abundance fitness of -0.11 ± 0.095.
Variant K55H has an abundance fitness of -0.258 ± 0.19.
Variant K55M has an abundance fitness of -0.356 ± 0.1.
For K55F, the abundance fitness was -0.652 ± 0.17.
V19C gave an abundance fitness of -0.583 ± 0.11.
With V19W the abundance fitness was -0.589 ± 0.083.
V19Q gave an abundance fitness of -0.383 ± 0.2.
With V19K the abundance fitness was -0.807 ± 0.13.
V19G showed an abundance fitness of -0.479 ± 0.056.
Work on V19N yielded an abundance fitness of -0.598 ± 0.19.
V19Y showed an abundance fitness of -0.992 ± 0.15.
A28F showed an abundance fitness of -0.563 ± 0.068.
A28L showed an abundance fitness of -0.684 ± 0.048.
Work on A28Q yielded an abundance fitness of -0.313 ± 0.065.
Variant A28V has an abundance fitness of -0.277 ± 0.056.
A28H gave an abundance fitness of -0.583 ± 0.067.
N22F showed an abundance fitness of -0.906 ± 0.24.
For N22P, the abundance fitness was -0.664 ± 0.13.
N22D showed an abundance fitness of 0.05 ± 0.08.
N22H showed an abundance fitness of -0.179 ± 0.17.
Work on N22W yielded an abundance fitness of -0.063 ± 0.1.
N22S showed an abundance fitness of -0.036 ± 0.074.
In the case of N22Q, the abundance fitness is reported as -0.217 ± 0.16.
N22C gave an abundance fitness of -0.211 ± 0.13.
A40K gave an abundance fitness of -0.27 ± 0.22.
Work on A40V yielded an abundance fitness of -0.075 ± 0.15.
Variant A40D has an abundance fitness of -0.739 ± 0.34.
With A40S the abundance fitness was 0.005 ± 0.19.
A40E gave an abundance fitness of -0.42 ± 0.19.
